In the supplement of paper PMC10724198:
± gives the standard deviation of the averaged measurements.

Experiments:
Saccharomyces cerevisiae [1] = experiment: protein stability index of tFT-peptide fusion in wild type (PSI (0-1 scale)); higher = more stable (slower turnover); settings: genetic background: wild type
Saccharomyces cerevisiae [2] = experiment: protein stability index of tFT-peptide fusion in deletion strain of DOA10 (PSI (0-1 scale)); higher = more stable (slower turnover)
Experimental: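 MPS profiling in S. cerevisiae of two library types built from selected 12-aa C-degron peptides (IN1, IN2, LN1, LN3, VN2, R1-R5, W1-W3, Atg1 and Rpa12 C-termini): saturation mutagenesis libraries and C-terminal +1 capping libraries (13 aa). Each peptide is fused to the C-terminus of a sfGFP-mCherry timer, after a GGGS linker. Cells are FACS-sorted into 8 mCherry/sfGFP bins and sequenced. PSI runs from 0 (unstable) to 1 (stable), measured once in wild type and in the das1Δ or doa10Δ background.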

Saccharomyces cerevisiae [3] = experiment: protein stability index of tFT-peptide fusion (C-terminal peptide) (PSI (0-1 scale)); higher = more stable (slower turnover)
Experimental: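 MPS profiling in S. cerevisiae of the tFT-X12 degron library: putative degron peptides plus stable controls, 12 aa, fused to the C-terminus of a sfGFP-mCherry timer. Cells are FACS-sorted into 8 mCherry/sfGFP bins and deep-sequenced. PSI runs from 0 (unstable) to 1 (stable). Backgrounds are wild type, das1Δ and doa10Δ at 30 °C, and wild type, das1Δ, cdc34-1 and cdc53-1 at 37 °C; 2-3 technical replicates each.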

Saccharomyces cerevisiae [4] = experiment: protein stability index of tFT-peptide fusion in deletion strain of DAS1 (PSI (0-1 scale)); higher = more stable (slower turnover)
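Wherever protein stability index of tFT-peptide fusion (C-terminal peptide) is given: PSI is a weighted mean of sequencing reads over stability bins, variants kept only with over 10 reads, mCherry proximal and sfGFP distal, peptide attached via GGGS linker.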
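Wherever protein stability index of tFT-peptide fusion in deletion strain of DAS1 is given: PSI is a weighted mean of each variant's read distribution over the sorted stability bins, computed only for variants having over 10 reads in total.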
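Wherever protein stability index of tFT-peptide fusion in deletion strain of DOA10 is given: PSI per variant is the weighted mean of its sequencing read distribution over the sorted stability bins, counting only variants with over 10 reads summed across bins.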
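Wherever protein stability index of tFT-peptide fusion in wild type is given: PSI derived as read-weighted mean over the 8 sorting bins, only variants exceeding 10 total reads kept, mCherry placed adjacent to the peptide and sfGFP distal.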

Row | Sequence | protein stability index (Saccharomyces cerevisiae [1]) | protein stability index (Saccharomyces cerevisiae [2]) | other results
1 | RSLRVLLPLYFD | 0.491 | 0.63 | –
2 | RSLRVLLKLYFR | 0.417 | 0.616 | –
3 | CLVSIPILLFFR | 0.057 | 0.556 | –
4 | RVTRLDAWYFRI | 0.678 | 0.717 | –
5 | RSLRVLLPLYFM | 0.328 | 0.42 | –
6 | CLVSLPILLRFR | 0.153 | 0.647 | –
7 | AITLPSCPLLLR | 0.304 | 0.669 | –
8 | RVPRLDAIYFRI | 0.389 | 0.669 | –
9 | RSLRVLLPLYFS | 0.246 | 0.352 | –
10 | RSLRVLLPLYFT | 0.265 | 0.478 | –
11 | CLASLPILLFFR | 0.0826 | 0.626 | –
12 | CKVSLPILLFFR | 0.0542 | 0.621 | –
13 | RVTRGDAIYFRI | 0.553 | 0.693 | –
14 | GLYLCSVGCWFR | 0.21 | 0.575 | –
15 | RSLRYLLPLYFR | 0.378 | 0.671 | –
16 | RSLRVLLPSYFR | 0.65 | 0.668 | –
17 | QLYMCSVGCWFR | 0.368 | 0.625 | –
18 | RSLGVLLPLYFR | 0.321 | 0.691 | –
19 | AICLPMCPLLLR | 0.224 | 0.632 | –
20 | AITLPMEPLLLR | 0.441 | 0.67 | –
21 | GLYMCSVYCWFR | 0.255 | 0.374 | –
22 | GSLRVLLPLYFR | 0.242 | 0.685 | –

Row | Sequence | protein stability index (Saccharomyces cerevisiae [1]) | protein stability index (Saccharomyces cerevisiae [2]) | other results
23 | CLVSLPILMFFR | 0.0684 | 0.591 | –
24 | AITLPMCPLLLRD | 0.422 | 0.65 | –
25 | RVTRLDAIYFRQ | 0.533 | 0.589 | –
26 | RSLRVLRPLYFR | 0.257 | 0.684 | –
27 | RSLRVLLSLYFR | 0.452 | 0.643 | –
28 | AILLPMCPLLLR | 0.281 | 0.612 | –
29 | RSLRVHLPLYFR | 0.157 | 0.67 | –
30 | RVTRLDAIYFRL | 0.395 | 0.7 | –
31 | CLHSLPILLFFR | 0.0715 | 0.626 | –
32 | RWLRVLLPLYFR | 0.402 | 0.682 | –
33 | AITLPNCPLLLR | 0.337 | 0.682 | –
34 | PLVSLPILLFFR | 0.138 | 0.661 | –
35 | RVTRKDAIYFRI | 0.564 | 0.664 | –
36 | AFTLPMCPLLLR | 0.171 | 0.653 | –
37 | CQVSLPILLFFR | 0.0497 | 0.631 | –
38 | CLVSLPNLLFFR | 0.11 | 0.685 | –
39 | GLYMCSVGCWFRF | 0.166 | 0.636 | –
40 | WLYMCSVGCWFR | 0.302 | 0.633 | –
41 | RSLRVLLPLYFK | 0.25 | 0.633 | –
42 | RNLRVLLPLYFR | 0.302 | 0.682 | –
43 | RMLRVLLPLYFR | 0.359 | 0.656 | –
44 | GLYMCSVGCWFF | 0.473 | 0.532 | –

Row | Sequence | protein stability index (Saccharomyces cerevisiae [1]) | protein stability index (Saccharomyces cerevisiae [2]) | other results
45 | GLYMLSVGCWFR | 0.246 | 0.464 | –
46 | LLVSLPILLFFR | 0.0951 | 0.561 | –
47 | AITLPMVPLLLR | 0.153 | 0.622 | –
48 | GLYMCSVDCWFR | 0.574 | 0.615 | –
49 | CLVSLPILLFFRN | 0.0659 | 0.531 | –
50 | RSLRVLLPLYFRA | 0.244 | 0.593 | –
51 | CLVSLPILLMFR | 0.0704 | 0.581 | –
52 | CLVSLPILLFFRE | 0.148 | 0.582 | –
53 | AITVPMCPLLLR | 0.299 | 0.656 | –
54 | HLYMCSVGCWFR | 0.401 | 0.63 | –
55 | RVTRLDAGYFRI | 0.673 | 0.702 | –
56 | RVTRLDAIYPRI | 0.693 | 0.731 | –
57 | AITLPMCALLLR | 0.149 | 0.638 | –
58 | AITLPMCPLTLR | 0.363 | 0.672 | –
59 | GLYMCSVGCWFK | 0.291 | 0.628 | –
60 | RSLRVLLPLRFR | 0.41 | 0.661 | –
61 | AITLPMCPLLLI | 0.493 | 0.596 | –
62 | GLYMCSVCCWFR | 0.47 | 0.548 | –
63 | CLVSCPILLFFR | 0.0926 | 0.578 | –
64 | CLVSLPILTFFR | 0.523 | 0.643 | –
65 | GLYMCSVGSWFR | 0.634 | 0.69 | –
66 | RSLRVLLPLYKR | 0.602 | 0.662 | –

Row | Sequence | protein stability index (Saccharomyces cerevisiae [1]) | protein stability index (Saccharomyces cerevisiae [2]) | other results
67 | CLVSLPILLFMR | 0.0691 | 0.56 | –
68 | CLVSGPILLFFR | 0.217 | 0.631 | –
69 | RVTDLDAIYFRI | 0.636 | 0.678 | –
70 | RSLRVLLVLYFR | 0.269 | 0.389 | –
71 | RSLRVLLRLYFR | 0.391 | 0.625 | –
72 | GLYMCSVGHWFR | 0.656 | 0.679 | –
73 | GLYMCSHGCWFR | 0.435 | 0.695 | –
74 | GLYMCNVGCWFR | 0.385 | 0.676 | –
75 | AITLPMCPLLLV | 0.349 | 0.417 | –
76 | RFTRLDAIYFRI | 0.378 | 0.656 | –
77 | CLVSAPILLFFR | 0.11 | 0.639 | –
78 | GLYMCSVGCWVR | 0.215 | 0.341 | –
79 | RVTRSDAIYFRI | 0.525 | 0.695 | –
80 | RSLRVLLPLYFRI | 0.184 | 0.484 | –
81 | GLYMCSVGGWFR | 0.644 | 0.674 | –
82 | RVTRLDKIYFRI | 0.283 | 0.51 | –
83 | RITRLDAIYFRI | 0.397 | 0.673 | –
84 | CLVRLPILLFFR | 0.0563 | 0.595 | –
85 | RSLRWLLPLYFR | 0.427 | 0.642 | –
86 | ARWGVGLWRGAS | 0.372 | – | protein stability index (Saccharomyces cerevisiae [3]; genetic background: cdc34-1, temperature: 37 C): 0.664 ± 0.02; protein stability index (Saccharomyces cerevisiae [3]; genetic background: cdc53-1, temperature: 37 C): 0.756 ± 0.0077; protein stability index (Saccharomyces cerevisiae [3]; genetic background: das1 deletion, temperature: 30 C): 0.6508 ± 0.0062; protein stability index (Saccharomyces cerevisiae [3]; genetic background: das1 deletion, temperature: 37 C): 0.76494 ± 7.7e-05; protein stability index (Saccharomyces cerevisiae [3]; genetic background: doa10 deletion, temperature: 30 C): 0.282 ± 0.018; protein stability index (Saccharomyces cerevisiae [3]; genetic background: wild type, temperature: 30 C): 0.299 ± 0.029; protein stability index (Saccharomyces cerevisiae [3]; genetic background: wild type, temperature: 37 C): 0.618 ± 0.012; protein stability index (Saccharomyces cerevisiae [4]): 0.685
87 | GLYMCSFGCWFR | 0.239 | 0.665 | –
88 | RSLRVLYPLYFR | 0.279 | 0.67 | –
